Experimental data taken from US20090208473A1 (RUTGERS THE STATE UNIVERSITY OF NEW JERSEY, published 2009).

How the values were obtained:
[1] = target: the molecule itself; assay: oligomerization; Western blot without DTT of GFP-MG53 mutants from C2C12 cells
Excerpt: These mutant constructs were transiently expressed in C2C12 myoblast cells (FIG. 22).

Molecule: MBP-MG53 (recombinant maltose-binding protein fusion protein for MG53)
- auto-ubiquitination in vitro (high molecular-mass ladders, anti-MBP immunoblot) (UbCH5): High molecular-mass ladders derived from ubiquitination were observed when MBP-MG53 was incubated with Ubc4 or UbCH5 as E2
- auto-ubiquitination in vitro (high molecular-mass ladders, anti-MBP immunoblot) (Ubc4): High molecular-mass ladders derived from ubiquitination were observed when MBP-MG53 was incubated with Ubc4 or UbCH5 as E2

B1: GFP-MG53 C242A mutant (other, mouse, UniProt Q1XH17 1-477, looked up)
chain: MSAAPGLLRQELSCPLCLQLFDAPVTAECGHSFCRACLIRVAGEPAADGTVACPCCQAPTRPQALSTNLQLSRLVEGLAQVPQGHCEEHLDPLSIYCEQDRTLVCGVCASLGSHRGHRLLPAAEAQARLKTQLPQQKMQLQEACMRKEKTVAVLEHQLVEVEETVRQFRGAVGEQLGKMRMFLAALESSLDREAERVRGDAGVALRRELSSLNSYLEQLRQMEKVLEEVADKPQTEFLMKFALVTSRLQKILSESPPPARLDIQLPVISDDFKFQVWKKMFRALMPALEELTFDPSSAHPSLVVSSSGRRVECSDQKAPPAGEDTRQFDKAVAVVAQQLLSQGEHYWEVEVGDKPRWALGVMAADASRRGRLHAVPSQGLWLLGLRDGKILEAHVEAKEPRALRTPERPPARIGLYLSFADGVLAFYDASNPDVLTPIFSFHERLPGPVYPIFDVCWHDKGKNAQPLLLVGPEQEQA
notes: the plasmid methods describe mouse MG53 cDNA; also called GFP-C242A; not shown: GFP at the N-terminus
- binding result [1]: no binding
